This note sets out measurements from the Immune Epitope Database (IEDB).

In assay [1] the target is HLA-A*01:01. Nature of the assay: IEDB peptide-MHC binding, purified MHC/competitive/fluorescence; filed as Kd, often an IC50 or EC50 that approximates it; ≥ and ≤ were set here for values at or beyond the usual limits of such assays. The settings on record: source organism: Pseudomonas aeruginosa UCBPP-PA14.
Assay [2] addresses HLA-A*03:01. The assay is described as above. The settings on record: source organism: Pseudomonas aeruginosa UCBPP-PA14.
The target of assay [3] is HLA-A*11:01. Described as above. The settings on record: source organism: Pseudomonas aeruginosa UCBPP-PA14.
Assay [4] concerns the target HLA-A*24:02. Described as above. The settings on record: source organism: Pseudomonas aeruginosa UCBPP-PA14.
Assay [5] addresses HLA-A*26:01. The description is as above. Conditions: source organism: Pseudomonas aeruginosa UCBPP-PA14.
A further assay deals with HLA-A*30:01. Described as above. The settings on record: source organism: Pseudomonas aeruginosa UCBPP-PA14.
For the next assay, the target named is HLA-A*31:01. The assay is described as above. Conditions: source organism: Pseudomonas aeruginosa UCBPP-PA14.
Assay [6] addresses HLA-A*69:01. Described as above. Conditions: source organism: Pseudomonas aeruginosa UCBPP-PA14.
Assay [7] deals with HLA-B*07:02. Described as above. The settings on record: source organism: Pseudomonas aeruginosa UCBPP-PA14.
The target of assay [8] is HLA-B*08:01. The description is as above. The settings on record: source organism: Pseudomonas aeruginosa UCBPP-PA14.
In assay [9] the target is HLA-B*15:01. The description is as above. The settings on record: source organism: Pseudomonas aeruginosa UCBPP-PA14.
Assay [10] addresses HLA-B*27:05. Described as above. Conditions: source organism: Pseudomonas aeruginosa UCBPP-PA14.
Assay [11] addresses HLA-B*40:01. The assay is described as above. Conditions: source organism: Pseudomonas aeruginosa UCBPP-PA14.
Assay [12] deals with HLA-B*58:01. The description is as above. The settings on record: source organism: Pseudomonas aeruginosa UCBPP-PA14.
The target in assay [13] is HLA-A*01:01. Nature of the assay: IEDB peptide-MHC binding, purified MHC/direct/fluorescence; filed as Kd, often an IC50 or EC50 that approximates it; ≥ and ≤ were set here for values at or beyond the usual limits of such assays.
A further assay addresses HLA-A*02:01. Described as above.
The target in assay [14] is HLA-A*03:01. Described as above.
The target of assay [15] is HLA-A*11:01. The assay is described as above. The settings on record: source organism: Influenza A virus (A/goose/Hong Kong/8/1976(H1N1)).
The target of assay [16] is HLA-A*24:02. The assay is described as above.
In assay [17] the target is HLA-A*26:01. The assay is described as above. Conditions: source organism: Influenza A virus(A/swine/Shandong/fNY/2003(H9N2)).
Assay [18] deals with HLA-A*69:01. Described as above. Conditions: source organism: Influenza A virus (A/goose/Hong Kong/8/1976(H1N1)).
Assay [19] addresses HLA-B*07:02. Described as above.
Assay [20] deals with HLA-B*08:01. The assay is described as above.
For a further assay, the target named is HLA-B*08:02. The description is as above.
Assay [21] has as its target HLA-B*15:01. The description is as above.
Assay [22] deals with HLA-B*27:05. The assay is described as above.
Assay [23] concerns the target HLA-B*40:01. The description is as above.
For another assay, the target named is HLA-B*44:02. Described as above.
The target in a further assay is HLA-B*46:01. The description is as above.
For assay [24], the target named is HLA-B*58:01. Described as above.
The target in the next assay is HLA-B*18:01. Described as above. Conditions: source organism: Influenza A virus (A/chicken/Vietnam/5/2003(H5N1)).
The mark [25] stands for this setting: source organism: Influenza A virus (A/goose/Hong Kong/8/1976(H1N1)).
Setting [26] is: source organism: Influenza A virus (A/Puerto Rico/8/34/Mount Sinai(H1N1)).
[27] abbreviates: source organism: Influenza A virus (A/chicken/Vietnam/5/2003(H5N1)).

Turning to AVFDGCVVY, the dissociation constant (Kd) with HLA-A*01:01 [1] was no less than 20 µM; with HLA-A*03:01 [2], 0.291 µM; in the assay with HLA-A*11:01 [3] it was 0.0306 µM; with HLA-A*24:02 [4], no less than 20 µM; with HLA-A*26:01 [5], no less than 20 µM; with HLA-A*30:01, no less than 20 µM. The Kd in the assay with HLA-A*31:01 is 1.26 µM; with HLA-A*69:01 [6] it was no less than 20 µM; in the assay with HLA-B*07:02 [7], no less than 20 µM; with HLA-B*08:01 [8], no less than 20 µM; with HLA-B*15:01 [9], 0.11 µM; in the assay with HLA-B*27:05 [10], no less than 20 µM. Also, the equilibrium dissociation constant (Kd) is no less than 20 µM with HLA-B*40:01 [11] and 1.12 µM with HLA-B*58:01 [12].

Turning to KTTYWWDGL, the Kd with HLA-A*01:01 [13] (setting [25]), with HLA-A*02:01 (setting [25]), in the assay with HLA-A*03:01 [14] (setting [25]), with HLA-A*11:01 [15], in the assay with HLA-A*24:02 [16] (setting [25]) and in the assay with HLA-A*26:01 [17] was no less than 20 µM throughout. For the same sequence, the dissociation constant (Kd) with HLA-A*69:01 [18], with HLA-B*07:02 [19] (setting [25]), with HLA-B*08:01 [20] (setting [25]), with HLA-B*08:02 (source organism: Influenza A virus(A/swine/Shandong/fNY/2003(H9N2))), in the assay with HLA-B*15:01 [21] (setting [25]) and with HLA-B*27:05 [22] (setting [25]) was no less than 20 µM each time. Further, the dissociation constant Kd is no less than 5 µM with HLA-B*40:01 [23] (setting [26]), no less than 20 µM with HLA-B*44:02 (setting [25]), no less than 20 µM with HLA-B*46:01 (setting [25]) and no less than 5 µM in the assay with HLA-B*58:01 [24] (setting [25]).

For QTYDWTLNR, the equilibrium dissociation constant (Kd) with HLA-A*01:01 [13] (setting [27]) is no less than 20 µM; with HLA-A*02:01 (setting [27]), no less than 20 µM; in the assay with HLA-A*03:01 [14] (setting [26]), 0.376 µM; in the assay with HLA-A*24:02 [16] (setting [27]), no less than 20 µM; in the assay with HLA-B*07:02 [19] (setting [27]) it was no less than 20 µM; with HLA-B*08:01 [20] (setting [27]), no less than 20 µM. Also, the Kd with HLA-B*08:02 (source organism: Influenza A virus(A/swine/Henan/3/2004(H9N2))), in the assay with HLA-B*15:01 [21] (setting [27]), with HLA-B*18:01, in the assay with HLA-B*27:05 [22] (setting [27]), with HLA-B*40:01 [23] (setting [27]) and with HLA-B*44:02 (setting [27]) was no less than 20 µM throughout. In addition, the dissociation constant Kd with HLA-B*46:01 (setting [27]) and in the assay with HLA-B*58:01 [24] (setting [27]) was no less than 20 µM each time.
